Test results as given in patent publication US20200255478A1, “NOVEL COMPOUNDS ACTIVATING THE NRF2 PATHWAY” (Almirall, S.A., priority 2017, published 2020).
Values joined by “and” are separate entries in the source; they are usually repeats but may differ in a detail not shown here. Identical values can stand only once. Positions of bridges follow the written chain, without caps; N, C: chain ends. Non-standard residues stand in square brackets, D forms with d. βAla = NCCC(=O)O

Target: Keap1-Maltose Binding Protein (MBP tag), Q14145
Assay: TR-FRET competition vs ETGE-biotin; grade band per paragraph 615

Chain of Keap1-Maltose Binding Protein (MBP tag), Q14145 (Q14145 321-609 limits assumed): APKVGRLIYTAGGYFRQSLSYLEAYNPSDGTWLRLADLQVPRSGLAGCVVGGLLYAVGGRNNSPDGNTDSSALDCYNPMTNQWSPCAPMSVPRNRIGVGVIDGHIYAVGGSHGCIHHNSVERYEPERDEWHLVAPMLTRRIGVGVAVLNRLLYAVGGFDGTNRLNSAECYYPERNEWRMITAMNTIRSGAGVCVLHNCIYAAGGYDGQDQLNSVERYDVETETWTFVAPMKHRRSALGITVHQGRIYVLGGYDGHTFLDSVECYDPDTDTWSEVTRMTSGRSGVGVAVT

B1: {[Stearyl-βAla-Leu-Gln-Cys(&1)-Asp-Pro-Glu-Thr-Gly-Glu-Cys(&2)-Leu-Pro-βAla-Arg-Lys-Lys-Arg-Arg-Gln- (peptide)
peptide: Stearyl-[βAla]LQCDPETGECLP[βAla]RKKRRQRRR-NH2
modifications: bridge 4-11; not fully specified (bridges); also: Cys4 and Cys11 cyclised, linker not given here
IC50: < 100 nM and > 1 nM
